Reference: IntAct's records for PubMed 17525731

Assays:
creb1_mouse Creb1 [1] = target: creb1_mouse Creb1 (UniProt Q01147)
creb1_mouse Creb1 [2] = target: creb1_mouse Creb1 (UniProt Q01147); remark: listed apart in the source

Sequence of creb1_mouse Creb1 (Q01147 whole entry): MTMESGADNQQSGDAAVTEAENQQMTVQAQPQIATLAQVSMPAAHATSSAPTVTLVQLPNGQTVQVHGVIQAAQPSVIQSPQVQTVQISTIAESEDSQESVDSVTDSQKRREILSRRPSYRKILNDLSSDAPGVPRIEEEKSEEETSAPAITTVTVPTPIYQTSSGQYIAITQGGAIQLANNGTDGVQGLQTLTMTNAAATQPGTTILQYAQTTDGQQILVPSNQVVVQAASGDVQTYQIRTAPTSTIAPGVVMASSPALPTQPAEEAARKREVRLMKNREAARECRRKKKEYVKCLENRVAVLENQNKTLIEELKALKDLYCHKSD

## Histone lysine acetyltransferase CREBBP (Mus musculus), P45481 Y650A
creb1_mouse Creb1 [1]
  effect of a mutation on the interaction: disrupting interaction
Creb1, Q01147-1
Sequence of Creb1, Q01147-1 (Q01147 other isoform, or with tags, fused parts or gaps): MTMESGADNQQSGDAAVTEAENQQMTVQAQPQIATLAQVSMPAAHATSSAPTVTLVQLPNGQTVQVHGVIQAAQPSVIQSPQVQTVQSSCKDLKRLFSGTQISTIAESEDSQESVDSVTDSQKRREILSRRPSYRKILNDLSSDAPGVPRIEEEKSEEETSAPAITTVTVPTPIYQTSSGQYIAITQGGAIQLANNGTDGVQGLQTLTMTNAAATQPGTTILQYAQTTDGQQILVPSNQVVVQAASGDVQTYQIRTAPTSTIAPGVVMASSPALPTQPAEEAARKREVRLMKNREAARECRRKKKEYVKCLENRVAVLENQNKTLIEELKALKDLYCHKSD
  effect of a mutation on the interaction: disrupting interaction

## Histone acetyltransferase p300 (Homo sapiens), Q09472 Y630A
creb1_mouse Creb1 [2]
  effect of a mutation on the interaction: disrupting interaction

## Histone lysine acetyltransferase CREBBP (Mus musculus), P45481 Y658A
creb1_mouse Creb1 [1]
  effect of a mutation on the interaction: disrupting interaction
Creb1, Q01147-1
  effect of a mutation on the interaction: disrupting interaction

## Histone acetyltransferase p300 (Homo sapiens), Q09472 Y638A
creb1_mouse Creb1 [2]
  effect of a mutation on the interaction: disrupting interaction

## Histone lysine acetyltransferase CREBBP (Mus musculus), P45481 A654Q
creb1_mouse Creb1 [1]
  effect of a mutation on the interaction: disrupting interaction
Creb1, Q01147-1
  effect of a mutation on the interaction: disrupting interaction

## Histone acetyltransferase p300 (Homo sapiens), Q09472 A634Q
creb1_mouse Creb1 [2]
  effect of a mutation on the interaction: disrupting interaction
